According to paper PMC3259531:

Biological target: Gdown1 (in vitro, construct not stated) (UniProt P0CAP2)

Chain of Gdown1 (in vitro, construct not stated) (from UniProt P0CAP2-1 1-368) (natural protein) (P0CAP2 whole entry): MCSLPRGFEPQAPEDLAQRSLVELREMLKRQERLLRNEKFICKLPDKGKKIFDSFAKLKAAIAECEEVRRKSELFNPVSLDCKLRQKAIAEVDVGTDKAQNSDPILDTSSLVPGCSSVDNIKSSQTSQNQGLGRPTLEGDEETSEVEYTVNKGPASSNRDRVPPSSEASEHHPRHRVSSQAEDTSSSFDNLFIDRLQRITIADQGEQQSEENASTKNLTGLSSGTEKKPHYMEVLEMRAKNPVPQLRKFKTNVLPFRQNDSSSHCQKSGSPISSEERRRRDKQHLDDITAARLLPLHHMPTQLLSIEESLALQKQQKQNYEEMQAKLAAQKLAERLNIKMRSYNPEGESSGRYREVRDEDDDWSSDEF

With “Gdown1 (in vitro, construct not stated) (from UniProt P0CAP2-1 1-368) (natural protein)” the stoichiometry N was 2.
